The nanobody polyreactivity screen of Harvey et al. (2022)

Assay: yeast display, Sf9 membrane polyspecificity reagent, FACS + sequencing; frameworks hold sequencing errors
Outline: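 Synthetic nanobody libraries on Saccharomyces cerevisiae BJ5465 were galactose-induced for 36–48 hours, stained 1 hour at 4 °C with 10% biotinylated, detergent-solubilized Sf9 membrane reagent and enriched on streptavidin microbeads. FACS then separated cells into low and high (top ~1%) gates by anti-HA (expression) and streptavidin (reagent binding) fluorescence. Genes were colony-PCR amplified, MiSeq 2 × 250 sequenced and CDR-length filtered. A clone's polyreactivity label is that of its gate of origin.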

Sequence | polyreactivity (PSR sort gate)
QVQLVESGGGLVQAGGSLRLSCAASGSTFPGNAMGWYRQAPGKERELVASIRRSGGSTYYADSVKGRFTISRDNAKNTVYLQMNSLKPADTAVDDCAKRTFLVSGPRSYGCYGVYYWGQGTQVTVSS | high polyreactivity
QVQLVESGGGLVQAGGSLRLSCAASGSIFQPYAMGWYRQAPGKERELVAAINGRGGSTHYADSVKGRFTISRDNAKNTVYLQMNSLKPEDTAVYYCAARYYRDYRWYTYAYDYWGQGTQVTVSS | high polyreactivity
QVQLVESGGGLVQAGGSLRLSCAASGSTFVPYTMGWYRQAPGKERELVAVITSGGSTNYADSVKGRFTISRDNAKNTVYLQMNSLKPEDTAVYYCAAYGGTHYTYRYDYWGQGTQVTVSS | high polyreactivity
QVQLVESGGGLVQAGGSLRLSCSASGRTFLGYAMGWYRQPPGKERELVAAISWDGTSTYYADSVKGRFTISRDNAKNNVYLQMNSLKTEDTAVYYCAAQYSYRMDYWGQGTQVTVSS | low polyreactivity
QVQLVESRGGLVQAGGSLRLSCAASGSTLSQNAMGWYRQAPGKEREFDADISGSGDSTYYADSVKGRFTISRDNAKNTFYLQMNSLKPEDTAVYYCATPSPHVGLKWEYDYWGQGTQVTVSS | low polyreactivity
QVQLVESGGGLVQAGGSLRLSCAASGSIFFWYTMGWYRQAPGKERELVATITGSGSSTTYADSVKGRFTISRDNAKNTVYFQMNSLKPEDTAVYYCAAADIIDHSFPYDYWGQGTQVTVSS | low polyreactivity
QVQHVESGGGLVQAGGSLRLSCAASGSTFAFYAMGWYRQAPGKERELVAAITWRVGSTYYADSVKGRFTISRDNAKNTVYLQMNSLKPEDTAVYYCAVDIPFYDSDYCGQGTQVTVSS | low polyreactivity
QVQLVESGGGLVQAGGSLRLSCAASGFTFARNAMGWYRQAPGKERELVAVISRGGSTNYADSVKGRFTISRDNAKNTVSLQLHSLKPEDTAVYYCATRSSRRSYYLGEFNYWGQGTQVTVSS | high polyreactivity
QDQLGDSGGGLLQAGGSLRLSCAASGQIYFDNMGWYRQAPGKEREMVAAISSSGASTSYADSVKGRFTISRDNAKNTVYLQIYSLNPEDTAVYYCAADSYPAYLGFVGFDYWGQGTQVTVSS | low polyreactivity
QVQLVESGGGLVQAGGSNRLSCAASGYIFDIYAMGCYRQAPVKERELVAVITRSGGGTYYADSVKGRFTISRDNAKNSVYLQMNSLKPEDTAVYYCAAESYVYGGSDYDYWGQGTQVTVSS | low polyreactivity
QVQLVESGGGLVQAGGSLRISCDASGSTFKLYPMGWYRQAPGKEREFVAAISRSGGSTNYADSVNGRFTISRDNAKNTVYLQMNSLKPEDTAVYYCAARYPGNYDYWGQGTQVTVSS | high polyreactivity
QVQLVESGGGLVQAGGSLRISCAASGRSFGVNAMGWYRQAPGKERELVAVISSGGSTYYADSVKVRFTISRDNAKNTVYLQMNSLKPEDTAVYYCNAVFGRWFPYNLSDYWGQGTQVTVSS | low polyreactivity
QLQLVESGGGLVQAGGSLRLSCAASGLTFQYYAMGWYRQAPGKERELVAAISTSGGSTYYADSVKGRFTISRDNAKNTVYLQMNSLKPEDTAVYYCAARGPGYPRIWRKYGYWGQGTQVTVSS | high polyreactivity
QVQLVESGGGLVQAGGSLRLSCAASGSIFEGNGRGWYREAPGKDRELVAAITFRSGSTYYADSVKGRFTISRDNAKNTVYLQMNSLKPEDTAVYYCAADEYYQVSAYDYWGQGTQVTVSS | low polyreactivity
QVQLVESGVGLVQAGGSLSLICAASGRIFWPNAMGSYRQAPGKERELVAAISRGGNTNYADSVKGRFTISRDNAKNTVYLQMNSLKPEDTAVYYCAARNFALGYRFDYWGQGTQVTVSS | high polyreactivity
QVQLVESGGGLVQAGGSLRLSCAASGIIFYYSAMGCYRQAPGKERELVAAISWSGGTTIYADSVKGRFTISLDNAKSTVYLQMNSLKPKDTAVYYCAAAFSPGWWSRHTYDYDYWGQGTQLTVSS | high polyreactivity
QVQLVESGGGLVQAGGSLRLSCAASGIIFEYYTIGWYRQATGKERELVASITYDGDSTYYADSVKGRFTISRDNAKNTVYLQMNSLKPEDTAVYYCAADYYSVYSSFGHYYWGQGTQVTVSS | low polyreactivity
QVQLVESGGGLLQAGGSLRLSCAASGSTFDIYAMGWYRQAPGKERELVAVISGGDGSTYYADSVKGRFTISRENAKNTVYLQMNSLKPEDTAVYYCAADDISPGYWDGEYDCWGQGTQVTVSS | low polyreactivity
QVQLVESGGGLVQAGGSLRLSCAASGFSFYSYTMGWYRQAPGSVRELVAAISRSGGRTSYADSVKGRFTNSRDNAKNTVYLQMNSLKPDDTAVYYRNAVRLLQTFAEYEYWGQGTQVTVSS | high polyreactivity
QVQLVDSAGGLVQAGGSLRLSCAASGSIINSNAMGWYRQAPGKERELVAAINWRGGSTYYADSVKGRFTISRDNAKNTVYLQMNSLKPEDTAVYYCNALRRAPRAEYYYGGQGTQVTVSS | high polyreactivity
QVQLVESGGGLVQAGGSLRLSCAASGRTLDLYAMGWYRQAPGKERELVAAISWRGGRTYYADSVKGRFTISRDNAQTTVYLQMNSLKPEDTAVYYCKADYPWSVVGYDYWGQGTQVSVSS | low polyreactivity
QVQLVESGGGLVQAGGSLRLSCAASGLTFYVYAMGWYRQAPGKERELVAAISSGGRTYYADSVKGRFTISRDNAKNTVYLQMTSLKPEDTAVYYCAAVRHRNYGYWGQGTQVTVSS | high polyreactivity

Sequence | polyreactivity (PSR sort gate)
QVQLVESGGGLVQAGGSLRLSCAASARIFYPYAMGWYRQAPGKERELVAAINWIGGSTYYADSVKGRFTISRDNAKYTVYLQMNSLKPEDSAVYYCAASYWHRRYDYWGQGTQVTLSS | high polyreactivity
QVQLVESGGGLVQAGGSLRLSCAASGSTFYKYGMGWYRPAPGKERELVAAISGSGDSTYYADSVKGRFTISRDNAKNTVYLQMNSLKPEDTAVYYCNAGPWWYLHEYDYWGQGTQVTVSS | low polyreactivity
QGQLVESWGGLVQAGGSHRLSCAASGRIFVYYAMGWYRQAPGKERELVAGMTGGGNTYYAYSVKVLFTISRDNAKNTGYLQKNSLKPEDTAVYYCAADPIRYRSRHKYGYWGQGTQVTVSS | low polyreactivity
QVQLVESGGGIVEAGVSLRLRGAASGGSFKSKAMVWYRQAPGNEREFVAAISSSGGSTYYADSVKGRFTISRDNAKNTVYLLMNILKPEDTAVYYCAADDYGYPYLSYDYWGQGTQVTVSS | high polyreactivity
QVQLVESGGGLVQAGGSLRLSCAASGPTFLVNAMGWYRQAPGKERELVATINWNAGSTYYADSVKGRFTISRDYAKNTVYLQMNSLKPEDTAVYYCAAPYEQAPTTDVSSLIPLHDYWGQGTQVTVSS | low polyreactivity
QVQLVESGGGLVQAGGSLRLSCAASGRTFDDYTMGWYRQAPGKERELVAAITGGGSTNYADSVKGRFTISRDNAKNTVYLQMNSLKPEDTAVYYCNAEYSRSYRYDEGYWGQGTQVTVSS | low polyreactivity
QVQLVESGGGLVQAGGSLRLSCAASGSTFFLYAMGWYRQAPGKERELVASITDGGSTNYADSVKGRFTISRDNAKNTVYLQMNSLKPEDTAVYYCNALARSSRYDYWGQGTQVTVSS | low polyreactivity
QVQLVESGGGLVQAGGSLRLSCAAYYYNMGWYRQAPGKESELVASITWSDVSTYYADSVKRRFTISRDNAKNTVYLQMNSLKPEDTAVYYCAKGTWADAYGYWGQGTQVTVSS | low polyreactivity
QVQLVESGGGLVQAGGSLRLSCAASGSTFYTYAMGWYRQATGKERELVAAISWSGGSTYYADSVKGRFTISRDNAKNTVYLQMNSLKPEDPAVYYCAADRPYAGRYWKGYHSALYDYWGQGSQVTVSS | low polyreactivity
QVQLVESGGGLVKAGGSLRLSCADSGRTFYINAMGWYRQAPGKERELVAAISNYGSSTYYADTVKGRFTISRDNAKYTVYLLMISLKPVDSAVYYCAASYGYGGDYDYWGQGTQGTVSS | high polyreactivity
QVQLVESGGGLVQAGGSLRLSCASSGSTFFLNAMGWYRQAPGKEREFVAAISYTSTSTYYADSVKGRFTISRDNAKNTVYLQMNSLKPEDTAVYYCAVDAAGWYYTVETGDYAEDYWGQGTQVTVSS | low polyreactivity
QVQLVESGGGLVQAGGSLRLSCAASGSTFAANAMGWYRQAPGKERELVAVIRRGGSTTYADSVKGRFTISRDNAKNTVYLLMNSLKPEDTAVYYCNARVTLGRPLFTYLVRYEYWGQGTQVTVSS | high polyreactivity
QVQLVESGGGLVQAGGSLPLSCAASGSTFDRNVMGWYRQAPGKERELVAAISRVSSTNYADSVKGRFTISRDNAKNTVNLQMNSLKPEDTAVYSCAADGAGSIMNYWGQGTQVTVSS | low polyreactivity
QVQLVESGGGLVQAGGSLRLSCAASGIIISRYAMGWYRQAPGKERELVADISIGDSTNYADSVKGRFTISRDNAKNTVYLQMNSLKPEDTAVYYCAAGDYFYSYYYWGQGTQVTVSS | low polyreactivity
QVQHVESGVGLVQAGGSLRLSCAASGRTFHSSTMGWYRLAAGKERELVAAISKSGGSTYYADSVKGRFTLSRDNAKNTVYLQMNSLKPEDTAVYYCAADPGSRVHPGVYYWGQGTQLTVSS | high polyreactivity
QVQLVESGGGLVQAGGSLRLSCGASGSSFADNAMGRYRPATGTERELVDTNTGSGGSTYYADSVKGRFTISRDNAKNTVYLLMNSLKPEDTAVYYCAAEVVAWSLYEDFKTYDYWGQGTQVTVSS | low polyreactivity
PVQLVESGGGLVQAGGSHRLSCAASGSIFYFNAMGWYRQAPGKERELVAVITDRGSTYYSDSVKGRFTISRDNAKNTVYLQMNSLKPEDTAVYYCAAQTPGVYLRQIGGYYYWGQGTQVTVSS | low polyreactivity
QVQLVESGGGLVQAGGSLRLSCAASGSTLRRYAMGWSRQAPGKERELVAAISGSGDSTYYADSVKGRFTISRDNAKNTVYLQMNSLKPEDTAVYYCNAVYAFNGYDYWGQGTQVTVSS | low polyreactivity
QVQLVESGGGLVQAGGSLRLSCAASGSTFAVYAMGWYRQEPGKERELVATITGSGGSTYYADSVKGRFTISRDNAKNTVYLQMNSLKPEDTAVYYCAAEVVAWSLYEDFKTYDYWGQGTQVTVSS | low polyreactivity
QVQLVESGRGLVQAGGSLRLSCAASGFTFGYYAMGWYRQAPGKERELVAAISASGASTYYADSVKGRFTISRDNAKNTVYLQMTSLKPEDTAVYYCAARPGQLTSPVTRTRYNYWGQGTQVTVSS | low polyreactivity
QVQLVESGGGLVQAGGSLRLSCASSGRTLGGYAMGWYRQAPGKERELVAAITRRGGSTYYADSVKGRFTISRDNAKNTVYLLMNSLKTEDTAVYYCAARWYARSLTRFNYWGEGTQVTVSS | high polyreactivity
